# T1: mouse OX40 expressed on ExpiCHO-S cells (mouse, UniProt P47741 20-272)
# T1 construct: full-length entry; also called OX40mm; wild-type mouse OX40
# T1 sequence: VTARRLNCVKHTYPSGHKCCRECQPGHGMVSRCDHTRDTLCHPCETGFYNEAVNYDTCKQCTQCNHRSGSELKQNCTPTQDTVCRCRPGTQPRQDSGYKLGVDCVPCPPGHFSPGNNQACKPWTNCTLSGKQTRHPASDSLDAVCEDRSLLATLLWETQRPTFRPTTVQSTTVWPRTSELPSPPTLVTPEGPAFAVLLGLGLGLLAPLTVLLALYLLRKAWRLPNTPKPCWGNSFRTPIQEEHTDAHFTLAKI
# T2: human OX40 with mouse CRD4 (human with mouse CRD4, UniProt P43489 29-277)
# T2 construct: on ExpiCHO-S cells; also called OX40-CRD4mm; Shuffle 4
# T2 chain: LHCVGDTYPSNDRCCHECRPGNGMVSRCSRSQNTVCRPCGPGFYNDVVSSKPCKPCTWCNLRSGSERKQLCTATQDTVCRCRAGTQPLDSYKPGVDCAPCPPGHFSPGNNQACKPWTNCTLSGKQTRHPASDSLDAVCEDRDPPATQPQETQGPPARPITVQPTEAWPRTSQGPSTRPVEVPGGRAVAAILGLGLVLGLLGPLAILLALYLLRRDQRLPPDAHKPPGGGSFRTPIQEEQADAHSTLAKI
# T3: cynomolgus monkey OX40 expressed on HEK293F cells (cynomolgus monkey (Macaca fascicularis), UniProt P43489 29-277 (human entry))
# T3 construct: full-length entry
# T3 chain: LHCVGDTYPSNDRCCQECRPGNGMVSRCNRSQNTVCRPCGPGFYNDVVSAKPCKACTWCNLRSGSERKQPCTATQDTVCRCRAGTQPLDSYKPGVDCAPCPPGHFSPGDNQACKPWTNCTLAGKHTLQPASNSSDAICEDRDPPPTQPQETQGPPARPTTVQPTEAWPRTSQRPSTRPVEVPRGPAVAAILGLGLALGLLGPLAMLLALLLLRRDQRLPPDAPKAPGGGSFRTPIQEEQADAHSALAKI
# T4: human OX40 expressed on cells (human, UniProt P43489 29-277)
# T4 construct: also called CD134; TNFRSF4
# T4 sequence: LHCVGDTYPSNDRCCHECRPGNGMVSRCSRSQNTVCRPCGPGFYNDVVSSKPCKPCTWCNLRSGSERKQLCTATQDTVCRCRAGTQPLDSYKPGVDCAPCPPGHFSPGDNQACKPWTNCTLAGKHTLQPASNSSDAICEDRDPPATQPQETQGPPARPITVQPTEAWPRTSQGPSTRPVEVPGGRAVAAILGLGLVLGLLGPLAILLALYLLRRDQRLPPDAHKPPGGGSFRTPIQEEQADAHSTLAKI
# T5: human OX40 with mouse CRD2 (human with mouse CRD2, UniProt P43489 29-277)
# T5 construct: on ExpiCHO-S cells; also called OX40-CRD2mm; Shuffle 2
# T5 chain: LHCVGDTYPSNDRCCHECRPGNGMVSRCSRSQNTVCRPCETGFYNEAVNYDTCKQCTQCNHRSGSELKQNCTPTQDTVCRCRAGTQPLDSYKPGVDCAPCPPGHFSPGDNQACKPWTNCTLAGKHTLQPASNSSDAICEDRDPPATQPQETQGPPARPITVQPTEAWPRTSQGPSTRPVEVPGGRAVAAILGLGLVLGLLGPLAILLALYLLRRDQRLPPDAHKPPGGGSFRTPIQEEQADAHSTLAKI
# T6: human OX40 with mouse CRD3 (human with mouse CRD3, UniProt P43489 29-277)
# T6 construct: on ExpiCHO-S cells; also called OX40-CRD3mm; Shuffle 3
# T6 chain: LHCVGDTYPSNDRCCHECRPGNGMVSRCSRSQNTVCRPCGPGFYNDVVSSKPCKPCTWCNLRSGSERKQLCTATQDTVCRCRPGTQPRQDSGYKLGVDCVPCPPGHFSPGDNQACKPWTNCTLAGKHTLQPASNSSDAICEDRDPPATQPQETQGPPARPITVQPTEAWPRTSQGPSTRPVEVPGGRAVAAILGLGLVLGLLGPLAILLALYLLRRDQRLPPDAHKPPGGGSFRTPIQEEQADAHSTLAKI
# T7: human OX40 with mouse CRD1 (human with mouse CRD1, UniProt P43489 29-277)
# T7 construct: on ExpiCHO-S cells; also called OX40-CRD1mm; Shuffle 1
# T7 chain: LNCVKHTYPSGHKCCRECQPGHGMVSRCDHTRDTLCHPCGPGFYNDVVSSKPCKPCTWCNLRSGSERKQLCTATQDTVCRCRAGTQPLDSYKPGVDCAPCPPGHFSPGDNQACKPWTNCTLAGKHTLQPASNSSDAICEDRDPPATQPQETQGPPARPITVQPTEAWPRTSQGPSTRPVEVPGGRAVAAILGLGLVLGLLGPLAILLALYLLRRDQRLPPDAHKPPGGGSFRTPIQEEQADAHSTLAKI
# Columns and labels:
# [1] = target: T1, mouse OX40 expressed on ExpiCHO-S cells; assay: flow cytometry, transfected ExpiCHO-S cells, gMFI (PE)
# [2] = target: T2, human OX40 with mouse CRD4; assay: as above
# Experimental: (§1) The four shuffle constructs, as well as wild-type human and mouse OX40 were transiently expressed on ExpiCHO-S cells using the ExpiFectamine™ CHO Transfection Kit (ThermoFisher, cat. no. A29131), according to the manufacturer's protocol. […] Next, cells were washed twice in FACS buffer 1, were resuspended in a 30 μL solution of viability marker ToPro-3 (Invitrogen, cat. no. T3605, diluted 1:10,000) in FACS buffer 1 supplemented with 2 mM EDTA, and were analyzed on an iQue Screener Plus (Intellicyt Corporation, USA). Data were analyzed using FlowJo software and visualized using GraphPad Prism.
# [3] = target: T3, cynomolgus monkey OX40 expressed on …; assay: flow cytometry, OX40-transfected HEK293F cells, gMFI (PE)
# Experimental: (§2) Transfected cells were seeded in 96-well plates (30,000 cells/well; ThermoFisher, cat. no. 163320) for sequential incubations, with washing steps in between using fluorescence-activated cell sorting (FACS) buffer 1 (phosphate buffered saline [PBS; Lonza, cat. no. BE17-517Q] supplemented with 0.1% bovine serum albumin [BSA; Roche, cat. no. 10735086001] and 0.02% sodium azide [NaN₃; Bio-World, cat. no. 41920044-3]) supplemented with 2 mM ethylenediaminetetraacetic acid (EDTA; Sigma-Aldrich, cat. no. 03690). […] Cells were then washed using EDTA-supplemented FACS buffer 1, resuspended in a 30 μL solution of viability marker ToPro-3 (Invitrogen, cat. no. T3605, diluted 1:10,000) in EDTA-supplemented FACS buffer 1, and subsequently analyzed on an iQue® 3 flow cytometer (Satorius). Data were analyzed using FlowJo software and were visualized using GraphPad Prism.
# [4] = target: T4, human OX40 expressed on cells; assay: as above
# Experimental: as §2
# [5] = target: T5, human OX40 with mouse CRD2; assay: flow cytometry, transfected ExpiCHO-S cells, gMFI (PE)
# [6] = target: T6, human OX40 with mouse CRD3; assay: flow cytometry, transfected ExpiCHO-S cells, MFI at 5 µg/mL as % of IgG1-CD134-A4453
# Experimental: as §1
# [7] = target: T7, human OX40 with mouse CRD1; assay: as above
# Experimental: as §1
# [8] = target: T5, human OX40 with mouse CRD2; assay: as above
# Experimental: as §1
Binder,binding result [1],binding result [2],EC50 (read off the curve) [3] [µg/mL],EC50 (read off the curve) [4] [µg/mL],binding result [5],binding result [6],binding result [7],binding result [8]
"IgG1-CD134-007-RR (antibody, non-humanized 007 variable regions; also called IgG1-CD134-007-P329R-E345R) heavy: not shown light: AQVLTQTPSPVSAAVGGTVTISCQSSESVWNNNWLAWYQQKPGQPPNLLIYEASTLASGVSSRFKGSGSGTQFTLTVSEVQSDDAATYYCQGGYYDSSPIWTFGGGTEVVVKRTVAAPSVFIFPPSDEQLKSGTASVVCLLNNFYPREAKVQWKVDNALQSGNSQESVTEQDSKDSTYSLSSTLTLSKADYEKHKVYACEVTHQGLSSPVTKSFNRGEC",no binding (tested: 50 µg/mL),binds,~0.04,~0.05,no binding (tested: 50 µg/mL),binds,binds,
"IgG1-CD134-012-RR-K409R (antibody, also called IgG1-CD134-012-P329R-E345R-K409R) heavy: QSLEESGGRLVTPGTPLTLICTVSGIDLSSGAMGWVRQAPGKGLEYIGYIYTGSGTTSYASWVNGRFTISMTSTTVDLKITSPTTEDTATYFCARDAASSYWGHFTLWGQGTLVTVSSASTKGPSVFPLAPSSKSTSGGTAALGCLVKDYFPEPVTVSWNSGALTSGVHTFPAVLQSSGLYSLSSVVTVPSSSLGTQTYICNVNHKPSNTKVDKRVEPKSCDKTHTCPPCPAPELLGGPSVFLFPPKPKDTLMISRTPEVTCVVVDVSHEDPEVKFNWYVDGVEVHNAKTKPREEQYNSTYRVVSVLTVLHQDWLNGKEYKCKVSNKALRAPIEKTISKAKGQPRRPQVYTLPPSREEMTKNQVSLTCLVKGFYPSDIAVEWESNGQPENNYKTTPPVLDSDGSFFLYSRLTVDKSRWQQGNVFSCSVMHEALHNHYTQKSLSLSPG light: DIVMTQTPASVEAAVGGTVTIKCQASENIYSSLAWYQQKPGQPPKLLIYRTSTLASGVPSRFKGSGSGTQFTLTISDLESDDAATYYCQSYYHNSGGGYDYGFGGGTEVVAKRTVAAPSVFIFPPSDEQLKSGTASVVCLLNNFYPREAKVQWKVDNALQSGNSQESVTEQDSKDSTYSLSSTLTLSKADYEKHKVYACEVTHQGLSSPVTKSFNRGEC",no binding (tested: 50 µg/mL),binds,~0.06,~0.05,,binds,,binds

# — US20240400703A1 (Genmab, published 2024)
